Target: BASP1 (brain acid soluble protein 1, CAP23, NAP22) (UniProt Q91XV3)
Assay: peptide affinity column, brain lysate, LC-MS/MS
Details: reference: non-phospho peptide …; sites S351

binding against the reference: stronger
Substance: PLPPR3 (phospholipid-phosphatase-related protein 3) (from UniProt Q7TPB0) pS351 peptide LKRApSVDVDLLA
